The target of one data set is Asp52 (UniProt position 70, TDGSTDYGILQ). Kind of data set: NMR. Particulars: not stated (presumably free, folded enzyme); cited from earlier work.
Another data set concerns the target Glu35 (UniProt position 53, CAAKFESNFNT). Kind of data set: NMR. Particulars: not stated (presumably free, folded enzyme); cited from earlier work.
The target in the next data set is T1, Slt35 (Escherichia coli, UniProt P41052).
T1 construct: gene mltB; N-terminal His-tag
T1 sequence (P41052 19-361): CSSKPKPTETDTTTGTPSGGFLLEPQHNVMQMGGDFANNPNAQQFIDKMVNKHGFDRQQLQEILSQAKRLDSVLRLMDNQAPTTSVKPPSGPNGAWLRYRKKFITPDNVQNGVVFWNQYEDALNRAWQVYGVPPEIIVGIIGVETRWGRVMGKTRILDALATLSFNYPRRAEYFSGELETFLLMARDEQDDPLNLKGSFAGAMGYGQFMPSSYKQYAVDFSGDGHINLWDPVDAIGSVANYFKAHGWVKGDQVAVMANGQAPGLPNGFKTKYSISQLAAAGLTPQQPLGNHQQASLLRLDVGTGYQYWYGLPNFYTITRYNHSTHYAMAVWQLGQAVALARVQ
Kind of data set: intrinsic fluorescence quenching titration (also turbidimetric inhibition assay, IC50 […]). It is filed as binding.

For a further data set, the target named is T2, hen egg white lysozyme (Gallus gallus, UniProt P00698).
T2 construct: gene LYZ
The description is as above. Format: binding.

One may read the pKa as the pH at which an ionisable group is half protonated. One may read the Kd as the concentration at which binding is half-saturated. The low end stands for a tighter complex, the high end for a looser complex.

T2 sequence (P00698 19-147): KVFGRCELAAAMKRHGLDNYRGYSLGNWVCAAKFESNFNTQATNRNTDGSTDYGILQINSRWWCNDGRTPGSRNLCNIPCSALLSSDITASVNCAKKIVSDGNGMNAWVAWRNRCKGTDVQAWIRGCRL

With “Hen egg white lysozyme (lysozyme C) (Gallus gallus)”, the values for the pKa with Asp52 and with Glu35 were 3.7 and 6.2, respectively.

As for `Nc1ccc2nc3ccc(N)cc3[s+]c2c1` [thionine acetate], the dissociation constant (Kd) is 17.1 ± 1 µM on Slt35 and 18.6 ± 1.2 µM at hen egg white lysozyme.

The values are drawn from PMC8307938, “The Lysozyme Inhibitor Thionine Acetate Is Also an Inhibitor of the Soluble Lytic Transglycosylase Slt35 from Escherichia coli” (Molecules, 2021).
